This is an account of results in PMC6497099, “Structural basis for oligomerization of the prokaryotic peptide transporter PepTSo2” (Acta Crystallographica. Section F, Structural Biology …, 2019).

In general, stoichiometry N refers to a count of units in the complex or per binding partner.

Data set [1] concerns the molecule itself. Put plainly: SEC; purified PepTSo2 in DDM-containing buffer, Superose 6 Increase column, tryptophan fluorescence (excitation 280 nm, emission 350 nm). In general terms: SEC sorts molecules by how far they enter the pores of the column.
Data set [2] deals with the molecule itself. Put plainly: SEC; fluorescence-detection SEC (FSEC) of the DDM-solubilised supernatant of E. coli cells mixed with the His tag-specific probe P3NTA (excitation 482 nm, emission 520 nm).

B1: PepTSo2 from Shewanella oneidensis, purified, His6 tag cleaved by TEV protease (natural protein, S. oneidensis)
chain: MTLGTNQVSKTHSFMTVSLIELWERFGYYGMQALIVYFMVQRLGFDDSRANLVWSACAALIYVSPAIGGWVGDKILGTKRTMLLGAGILSVGYALMTVPTENTWFMFSALGVIVVGNGLFKPNAGNLVRKIYEGDDSKIDSAFTIYYMAVNVGSTFSMLLTPWIKDYVNAQYGNEFGWHAAFAVCCVGILVGLGNYALMHKSLANYGSEPDTRPVNKKSLAIVLALAALSVVASAIILEYEDVARVFVYAAGVAVLGIFFHLIRTSEPSERAGLIAALILTVQTVFFFIFYQQMSTSLALFALRNVDWDFQVFGTHLWTWSPAQFQALNPIWIMVLSPVLAWSYSWAGRNNKDFSIAAKFALGFAVVAIGFFIYGFAGQFAVNGKTSSWVMIWGYASYSLGELLVSGLGLAMIARYVPARMGGFMMGAYFVASGISQYLGGVVANFASVPQDLVDPLQTLPVYTNLFNKLGVAAVVCTIIALAVLPLMRRLTESHHAHSSIENNAAASLRDVKAEQLESSGENLYFQ
notes: full-length PepTSo2, Shewanella oneidensis, UniProt Q8EHE6; Detergent-solubilised (DDM) for SEC; in Salipro nanoparticles (saposin A, DMPG) for cryo-EM; in monoolein lipidic cubic phase for crystals; also called tetrameric PepTSo2; purified PepTSo2; source: E. coli Rosetta 2 (DE3), purified (DDM solubilisation, Ni-NTA, TEV cleavage, second Ni-NTA, SEC); not shown: His6, C-terminal, cleaved
For the protein B1, in data set [1], the “stoichiometry N” value was found to be 4.

B2: C-terminally His6-tagged full-length PepTSo2 (tag kept, FSEC screening) (natural protein, S. oneidensis)
chain: MTLGTNQVSKTHSFMTVSLIELWERFGYYGMQALIVYFMVQRLGFDDSRANLVWSACAALIYVSPAIGGWVGDKILGTKRTMLLGAGILSVGYALMTVPTENTWFMFSALGVIVVGNGLFKPNAGNLVRKIYEGDDSKIDSAFTIYYMAVNVGSTFSMLLTPWIKDYVNAQYGNEFGWHAAFAVCCVGILVGLGNYALMHKSLANYGSEPDTRPVNKKSLAIVLALAALSVVASAIILEYEDVARVFVYAAGVAVLGIFFHLIRTSEPSERAGLIAALILTVQTVFFFIFYQQMSTSLALFALRNVDWDFQVFGTHLWTWSPAQFQALNPIWIMVLSPVLAWSYSWAGRNNKDFSIAAKFALGFAVVAIGFFIYGFAGQFAVNGKTSSWVMIWGYASYSLGELLVSGLGLAMIARYVPARMGGFMMGAYFVASGISQYLGGVVANFASVPQDLVDPLQTLPVYTNLFNKLGVAAVVCTIIALAVLPLMRRLTESHHAHSSIENNAAASLRDVKAEQLESSGENLYFQGQFTSSV
notes: full-length PepTSo2, Shewanella oneidensis, UniProt Q8EHE6; cloning artifact with the TEV protease site, between PepTSo2 and the His6 tag (not cleaved in this experiment); Detected in FSEC by the histidine tag-specific fluorescent probe P3NTA; also called His6-tagged PepTSo2; His6 construct; source: E. coli Rosetta 2 (DE3) or C41 (DE3) with pRARE, DDM-solubilised supernatant of disrupted cells; …
In the case of B2, in data set [2], the “stoichiometry N” value was determined as 4.
